Holding throughout (assay): Kinase Profiling Assay
What all share (type): biochemical
What all share (conditions): 100 μM

In test [1] the target is T1, CaMKIV (h) (Homo sapiens, UniProt Q16566).
T1 construct: purchased Millipore
T1 sequence (Q16566 1-473): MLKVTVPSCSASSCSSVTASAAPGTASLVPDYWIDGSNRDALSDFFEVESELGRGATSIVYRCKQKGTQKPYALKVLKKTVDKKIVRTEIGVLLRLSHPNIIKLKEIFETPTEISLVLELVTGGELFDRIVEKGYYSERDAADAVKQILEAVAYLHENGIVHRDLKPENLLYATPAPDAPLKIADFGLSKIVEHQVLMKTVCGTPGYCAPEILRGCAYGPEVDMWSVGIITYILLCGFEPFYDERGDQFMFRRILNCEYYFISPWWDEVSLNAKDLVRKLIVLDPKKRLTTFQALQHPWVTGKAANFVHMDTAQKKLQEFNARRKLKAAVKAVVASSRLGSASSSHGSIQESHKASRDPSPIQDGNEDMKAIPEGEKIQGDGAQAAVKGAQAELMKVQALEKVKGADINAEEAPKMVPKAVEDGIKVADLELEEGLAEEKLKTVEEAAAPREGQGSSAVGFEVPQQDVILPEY
The method, boiled down: (§1)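 Activity remaining relative to an uninhibited control was determined by scintillation counting of labeled substrate bound to a negatively charged filter. Radiolabeled phosphate came from ATP; the substrate carried positive charge. Duplicate measurements, within a 266-kinase human panel.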

Test [2] addresses T2, CDK1/cyclinB (h) (Homo sapiens, UniProt P06493).
T2 construct: purchased Millipore
The gist of the method: as §1

In test [3] the target is T3, Fyn (h) (Homo sapiens, UniProt P06241).
T3 construct: purchased Millipore
T3 sequence (P06241 whole entry): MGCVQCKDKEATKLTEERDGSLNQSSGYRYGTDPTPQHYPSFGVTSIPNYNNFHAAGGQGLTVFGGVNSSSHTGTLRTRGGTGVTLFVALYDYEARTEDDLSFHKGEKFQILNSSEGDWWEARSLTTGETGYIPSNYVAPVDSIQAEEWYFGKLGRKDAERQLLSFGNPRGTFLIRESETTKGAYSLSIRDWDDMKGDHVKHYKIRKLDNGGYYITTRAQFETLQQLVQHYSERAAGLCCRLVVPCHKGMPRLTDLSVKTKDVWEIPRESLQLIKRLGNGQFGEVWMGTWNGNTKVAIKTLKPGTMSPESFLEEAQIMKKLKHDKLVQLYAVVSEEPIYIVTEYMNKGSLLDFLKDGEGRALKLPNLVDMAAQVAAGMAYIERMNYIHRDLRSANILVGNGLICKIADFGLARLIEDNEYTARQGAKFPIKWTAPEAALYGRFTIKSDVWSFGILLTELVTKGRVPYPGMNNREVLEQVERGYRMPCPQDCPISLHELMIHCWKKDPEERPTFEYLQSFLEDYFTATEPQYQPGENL
The method, boiled down: as §1

In test [4] the target is PKCθ (h) (Homo sapiens, UniProt Q04759). The gist of the method: as §1
Chain of PKCθ (h) (Q04759 whole entry): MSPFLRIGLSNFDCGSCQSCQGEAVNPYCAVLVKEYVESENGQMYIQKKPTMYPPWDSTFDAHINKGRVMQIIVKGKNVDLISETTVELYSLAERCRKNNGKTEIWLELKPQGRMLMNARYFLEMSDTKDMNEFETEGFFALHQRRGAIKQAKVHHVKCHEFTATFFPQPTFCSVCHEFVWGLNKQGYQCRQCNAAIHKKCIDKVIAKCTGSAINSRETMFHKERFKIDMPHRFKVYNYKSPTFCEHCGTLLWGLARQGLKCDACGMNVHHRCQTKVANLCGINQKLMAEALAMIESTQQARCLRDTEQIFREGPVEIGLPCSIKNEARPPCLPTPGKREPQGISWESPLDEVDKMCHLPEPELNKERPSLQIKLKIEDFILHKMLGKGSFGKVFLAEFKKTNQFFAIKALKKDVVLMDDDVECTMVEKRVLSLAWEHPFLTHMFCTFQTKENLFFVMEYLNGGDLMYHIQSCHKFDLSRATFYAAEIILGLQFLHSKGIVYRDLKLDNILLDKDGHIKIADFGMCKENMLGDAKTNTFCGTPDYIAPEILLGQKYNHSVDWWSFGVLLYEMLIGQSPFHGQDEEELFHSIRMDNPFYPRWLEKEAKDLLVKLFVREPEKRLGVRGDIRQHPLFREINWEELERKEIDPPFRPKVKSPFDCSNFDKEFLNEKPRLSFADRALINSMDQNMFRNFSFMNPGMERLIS
For test [5], the target named is Lyn (h) (Homo sapiens, UniProt P07948). The method, boiled down: as §1
Chain of Lyn (h) (P07948 whole entry): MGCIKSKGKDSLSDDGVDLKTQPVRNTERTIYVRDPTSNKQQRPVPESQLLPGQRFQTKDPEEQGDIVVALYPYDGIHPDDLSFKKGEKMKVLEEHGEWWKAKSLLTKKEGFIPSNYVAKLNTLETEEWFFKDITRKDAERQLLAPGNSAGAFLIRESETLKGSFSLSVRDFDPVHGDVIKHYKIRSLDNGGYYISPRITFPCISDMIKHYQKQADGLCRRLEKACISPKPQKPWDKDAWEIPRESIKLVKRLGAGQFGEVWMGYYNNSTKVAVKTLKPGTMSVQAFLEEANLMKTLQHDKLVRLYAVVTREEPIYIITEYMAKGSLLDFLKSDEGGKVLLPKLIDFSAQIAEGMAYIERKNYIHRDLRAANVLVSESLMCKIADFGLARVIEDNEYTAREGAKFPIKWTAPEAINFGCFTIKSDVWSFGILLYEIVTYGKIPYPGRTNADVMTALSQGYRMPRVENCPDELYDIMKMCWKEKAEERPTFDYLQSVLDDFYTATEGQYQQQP
The target in test [6] is T4, DRAK1 (h) (Homo sapiens, UniProt Q9UEE5).
T4 construct: purchased Millipore
T4 sequence (Q9UEE5 1-414): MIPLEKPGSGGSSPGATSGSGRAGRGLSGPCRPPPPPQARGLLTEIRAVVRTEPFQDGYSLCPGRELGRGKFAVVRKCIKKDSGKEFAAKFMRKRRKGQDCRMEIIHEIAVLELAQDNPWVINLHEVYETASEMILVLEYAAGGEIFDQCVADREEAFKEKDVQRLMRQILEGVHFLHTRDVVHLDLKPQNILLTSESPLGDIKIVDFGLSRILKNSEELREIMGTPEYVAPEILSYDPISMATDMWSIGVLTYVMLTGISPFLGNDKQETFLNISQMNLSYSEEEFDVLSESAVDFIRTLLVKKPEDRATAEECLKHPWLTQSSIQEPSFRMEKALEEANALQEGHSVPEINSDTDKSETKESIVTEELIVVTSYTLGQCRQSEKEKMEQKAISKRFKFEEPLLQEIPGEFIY
The method, boiled down:
as §1

Test [7] concerns the target T5, MST1 (h) (Homo sapiens, UniProt Q13043).
T5 construct: purchased Millipore
T5 sequence (Q13043 1-487): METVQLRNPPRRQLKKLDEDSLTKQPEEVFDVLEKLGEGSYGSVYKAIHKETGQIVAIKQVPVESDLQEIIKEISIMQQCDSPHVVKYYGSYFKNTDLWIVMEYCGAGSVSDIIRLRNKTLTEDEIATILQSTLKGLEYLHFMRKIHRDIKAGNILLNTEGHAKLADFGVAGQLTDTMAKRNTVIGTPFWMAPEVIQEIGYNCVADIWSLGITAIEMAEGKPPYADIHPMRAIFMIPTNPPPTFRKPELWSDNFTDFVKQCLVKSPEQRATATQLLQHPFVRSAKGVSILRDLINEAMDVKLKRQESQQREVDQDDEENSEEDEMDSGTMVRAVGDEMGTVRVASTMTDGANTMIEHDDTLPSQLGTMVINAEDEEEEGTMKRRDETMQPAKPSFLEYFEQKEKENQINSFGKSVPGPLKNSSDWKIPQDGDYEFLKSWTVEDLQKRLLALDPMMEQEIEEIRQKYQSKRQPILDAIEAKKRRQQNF
The gist of the method:
as §1

For test [8], the target named is T6, EGFR(L861Q) (h) (Homo sapiens, UniProt P00533, L861Q).
T6 construct: purchased Millipore
The method, boiled down: as §1

The target of test [9] is T7, PKBα (h) (Homo sapiens, UniProt P31749).
T7 construct: purchased Millipore
T7 sequence (P31749 whole entry): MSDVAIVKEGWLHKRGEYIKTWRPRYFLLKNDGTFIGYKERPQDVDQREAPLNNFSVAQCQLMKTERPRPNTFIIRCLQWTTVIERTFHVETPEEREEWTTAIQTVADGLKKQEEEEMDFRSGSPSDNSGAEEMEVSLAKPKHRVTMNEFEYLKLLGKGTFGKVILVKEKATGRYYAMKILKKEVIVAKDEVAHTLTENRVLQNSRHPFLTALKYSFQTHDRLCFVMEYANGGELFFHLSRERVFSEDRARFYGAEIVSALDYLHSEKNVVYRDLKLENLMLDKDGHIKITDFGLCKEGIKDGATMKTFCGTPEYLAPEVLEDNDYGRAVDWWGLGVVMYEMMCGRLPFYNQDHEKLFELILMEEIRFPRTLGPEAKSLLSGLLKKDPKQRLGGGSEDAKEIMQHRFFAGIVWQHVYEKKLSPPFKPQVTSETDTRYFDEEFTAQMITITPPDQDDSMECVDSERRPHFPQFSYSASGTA
The method, boiled down:
as §1

Test [10] has as its target T8, GCK (h) (Homo sapiens, UniProt Q12851).
T8 construct: purchased Millipore
T8 sequence (Q12851 1-820): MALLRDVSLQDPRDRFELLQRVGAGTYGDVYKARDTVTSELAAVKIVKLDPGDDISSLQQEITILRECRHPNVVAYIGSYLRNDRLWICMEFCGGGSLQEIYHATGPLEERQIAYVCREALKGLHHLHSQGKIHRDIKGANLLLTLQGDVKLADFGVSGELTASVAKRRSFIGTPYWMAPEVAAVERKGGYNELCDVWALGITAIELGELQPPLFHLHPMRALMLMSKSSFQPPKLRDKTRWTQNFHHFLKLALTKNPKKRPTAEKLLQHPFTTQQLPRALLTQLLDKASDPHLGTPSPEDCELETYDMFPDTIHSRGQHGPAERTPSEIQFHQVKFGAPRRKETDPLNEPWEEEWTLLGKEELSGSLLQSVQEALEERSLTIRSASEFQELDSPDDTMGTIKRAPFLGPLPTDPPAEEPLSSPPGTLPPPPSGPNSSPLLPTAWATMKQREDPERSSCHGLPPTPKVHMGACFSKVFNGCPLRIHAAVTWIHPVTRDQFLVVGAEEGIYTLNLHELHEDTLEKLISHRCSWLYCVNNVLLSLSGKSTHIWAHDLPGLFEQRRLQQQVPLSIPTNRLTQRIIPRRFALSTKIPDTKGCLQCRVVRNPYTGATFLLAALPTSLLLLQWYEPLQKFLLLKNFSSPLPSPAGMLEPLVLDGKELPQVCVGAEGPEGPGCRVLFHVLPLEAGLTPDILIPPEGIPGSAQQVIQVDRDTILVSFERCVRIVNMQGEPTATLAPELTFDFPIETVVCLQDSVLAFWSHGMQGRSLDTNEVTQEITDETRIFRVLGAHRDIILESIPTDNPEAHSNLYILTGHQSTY
The gist of the method:
as §1

Test [11] has as its target T9, DAPK1 (h) (Homo sapiens, UniProt P53355).
T9 construct: purchased Millipore
The gist of the method:
as §1

T9 sequence (P53355 whole entry): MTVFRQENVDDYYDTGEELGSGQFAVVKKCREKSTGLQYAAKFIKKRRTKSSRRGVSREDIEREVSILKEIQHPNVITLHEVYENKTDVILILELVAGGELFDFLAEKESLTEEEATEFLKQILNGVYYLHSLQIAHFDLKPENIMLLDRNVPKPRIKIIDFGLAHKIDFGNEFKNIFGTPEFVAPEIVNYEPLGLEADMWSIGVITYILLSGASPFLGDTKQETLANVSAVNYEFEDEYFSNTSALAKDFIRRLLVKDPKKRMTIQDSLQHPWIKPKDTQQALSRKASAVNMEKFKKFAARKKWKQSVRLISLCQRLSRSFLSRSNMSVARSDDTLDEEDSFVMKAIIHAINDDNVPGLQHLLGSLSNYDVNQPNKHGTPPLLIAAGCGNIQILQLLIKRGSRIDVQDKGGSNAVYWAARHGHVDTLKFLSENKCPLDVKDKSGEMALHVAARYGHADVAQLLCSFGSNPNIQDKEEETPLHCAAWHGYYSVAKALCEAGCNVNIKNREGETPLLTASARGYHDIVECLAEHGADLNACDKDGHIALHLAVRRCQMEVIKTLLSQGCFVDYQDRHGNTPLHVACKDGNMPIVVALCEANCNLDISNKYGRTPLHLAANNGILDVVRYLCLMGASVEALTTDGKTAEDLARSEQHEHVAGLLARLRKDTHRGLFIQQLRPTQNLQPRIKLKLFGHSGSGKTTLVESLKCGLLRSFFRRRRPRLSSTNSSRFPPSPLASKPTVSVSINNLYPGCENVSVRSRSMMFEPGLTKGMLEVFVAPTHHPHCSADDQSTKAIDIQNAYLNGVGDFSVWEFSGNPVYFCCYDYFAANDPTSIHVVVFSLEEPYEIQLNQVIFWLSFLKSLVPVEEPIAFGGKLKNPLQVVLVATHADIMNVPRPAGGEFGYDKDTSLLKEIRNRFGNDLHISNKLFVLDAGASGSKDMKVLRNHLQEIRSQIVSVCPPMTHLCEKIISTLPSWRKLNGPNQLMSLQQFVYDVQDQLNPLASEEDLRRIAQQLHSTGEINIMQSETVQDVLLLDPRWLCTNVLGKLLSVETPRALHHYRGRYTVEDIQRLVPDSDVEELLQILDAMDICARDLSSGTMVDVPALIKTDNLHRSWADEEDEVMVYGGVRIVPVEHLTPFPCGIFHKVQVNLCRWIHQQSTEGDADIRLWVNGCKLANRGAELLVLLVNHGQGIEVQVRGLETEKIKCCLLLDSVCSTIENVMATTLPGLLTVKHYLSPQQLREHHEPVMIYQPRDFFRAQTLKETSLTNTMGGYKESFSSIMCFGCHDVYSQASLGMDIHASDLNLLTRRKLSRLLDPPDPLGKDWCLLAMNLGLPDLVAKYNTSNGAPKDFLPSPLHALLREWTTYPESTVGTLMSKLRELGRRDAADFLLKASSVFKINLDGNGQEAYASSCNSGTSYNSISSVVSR
T2 sequence (P06493 whole entry): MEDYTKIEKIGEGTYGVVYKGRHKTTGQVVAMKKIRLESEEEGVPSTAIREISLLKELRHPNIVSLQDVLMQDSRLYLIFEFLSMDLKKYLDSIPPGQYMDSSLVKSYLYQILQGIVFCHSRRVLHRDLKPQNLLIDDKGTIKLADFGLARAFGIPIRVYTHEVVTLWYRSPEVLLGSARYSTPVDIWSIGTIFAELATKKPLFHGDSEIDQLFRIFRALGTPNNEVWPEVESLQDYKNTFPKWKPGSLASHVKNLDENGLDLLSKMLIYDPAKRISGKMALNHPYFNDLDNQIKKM
T2 sequence (P14635 whole entry partner): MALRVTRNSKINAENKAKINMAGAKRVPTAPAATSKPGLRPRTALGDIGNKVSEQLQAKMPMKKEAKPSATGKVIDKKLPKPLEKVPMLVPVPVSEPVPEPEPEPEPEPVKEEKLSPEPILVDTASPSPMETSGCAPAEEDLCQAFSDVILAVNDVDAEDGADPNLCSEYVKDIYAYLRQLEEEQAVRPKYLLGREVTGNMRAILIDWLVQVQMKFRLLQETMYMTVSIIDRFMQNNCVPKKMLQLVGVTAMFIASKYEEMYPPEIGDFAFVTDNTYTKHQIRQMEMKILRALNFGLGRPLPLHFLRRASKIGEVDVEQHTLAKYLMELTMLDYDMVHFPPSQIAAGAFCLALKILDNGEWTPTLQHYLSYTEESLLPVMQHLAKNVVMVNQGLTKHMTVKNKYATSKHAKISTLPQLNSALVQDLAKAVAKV

Consider FAKLAARLYRKALARQLGVAA [MMI-0300], for which the “% activity” value is recorded as 17% in test [1]; 73% in test [2]; 74% in test [3]; 88% in [4]; 69% in test [5]; 14% in [6]. Further, the “% activity” value in test [7] is 14%; in test [8] it was 25%; in test [9], 57%; in test [10], 70%; in test [11], 46%.

In the case of KAFAKLAARLYRKALARQLGVAA [MMI-0400], the “% activity” value is recorded as 18% in test [1]; 74% in test [2]; 54% in test [3]; 76% in test [4]; 3% in [5]; 14% in test [6]. Further, the “% activity” value in [7] is recorded as 6%; in test [8], 22%; in [9] it was 67%; in test [10] it was 66%; in test [11], 36%.

Regarding “YARAAARQARAKALNRQLGVA (Mammalian) [MMI-0200]”, the “% activity” value in test [1] is 71%; in test [3], 75%; in test [4], 101%; in [5], 98%; in test [6] it was 34%; in test [7] it was 72%. For the same sequence, the results for the “% activity” value in test [8], in test [9] and in test [10] were 74%, 110% and 99%, respectively.

For “HRRIKAWLKKIKALARQLGVAA (Mammalian) [MMI-0500]”, the “% activity” value in test [1] is −1%; in test [2], 57%; in test [3] it was 83%; in [4], 62%; in [5], 31%; in test [6], 8%. Also, the “% activity” value in test [7] worked out at 3%; in [8], 15%; in test [9], 30%; in [10] it was 30%; in test [11] it was 0%.

The values are drawn from patent publication US10500249B2, “Compositions and methods for preventing or treating diseases, conditions, or processes characterized by aberrant fibroblast proliferation and extracellular matrix deposition” (MOERAE MATRIX, INC., priority 2014, dated 2019).
